Reference: US20110027284A1 (Novartis, published 2011)

T1: recombinant human NiG (human, UniProt Q9NQC3 186-1004)
T1 construct: Recombinant fragment, amine-coupled to a CM5 chip; also called hNiG; human NiG-fragment of NogoA
T1 sequence: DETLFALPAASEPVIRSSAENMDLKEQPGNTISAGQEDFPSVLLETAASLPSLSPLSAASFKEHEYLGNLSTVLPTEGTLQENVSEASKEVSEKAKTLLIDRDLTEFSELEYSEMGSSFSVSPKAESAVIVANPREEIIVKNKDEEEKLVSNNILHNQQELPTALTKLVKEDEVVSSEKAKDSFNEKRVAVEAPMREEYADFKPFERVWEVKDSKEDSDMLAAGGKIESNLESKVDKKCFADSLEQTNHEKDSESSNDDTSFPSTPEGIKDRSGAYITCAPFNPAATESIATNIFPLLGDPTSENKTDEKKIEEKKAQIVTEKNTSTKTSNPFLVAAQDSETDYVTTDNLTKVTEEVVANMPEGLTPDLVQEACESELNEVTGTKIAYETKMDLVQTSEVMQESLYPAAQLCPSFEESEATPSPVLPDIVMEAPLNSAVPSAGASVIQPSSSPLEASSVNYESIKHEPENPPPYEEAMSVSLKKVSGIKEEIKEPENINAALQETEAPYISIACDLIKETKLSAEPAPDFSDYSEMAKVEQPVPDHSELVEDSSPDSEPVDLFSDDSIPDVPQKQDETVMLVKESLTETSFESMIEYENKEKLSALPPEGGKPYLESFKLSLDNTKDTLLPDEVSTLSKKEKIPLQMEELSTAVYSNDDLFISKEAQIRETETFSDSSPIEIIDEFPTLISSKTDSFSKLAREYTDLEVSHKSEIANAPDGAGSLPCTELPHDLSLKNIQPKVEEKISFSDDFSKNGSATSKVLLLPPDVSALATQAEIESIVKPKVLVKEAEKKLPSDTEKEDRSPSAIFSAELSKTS

B1: 6A3-IgG4 mAb (antibody, V domains shown)
VH: EVQLVESGGGLVQPGGSLRLSCAASGFTFSNYWMSWVRQAPGKGLEWVATIKQDGSQKNYVDSVKGRFTISRDNAKNSLYLRLNSLRAEDTAVYYCATELFDLWGRGSLVTVSS
VL: EIVLTQSPATLSLSPGERATLSCRASQSVSSYLAWYQQKPGQAPRLLIYDASNRATGIPARFSGSGSGTDFTLTISSLEPEDFAVYYCQQRSNWPITFGQGTKLEIKR
notes: Recombinant human IgG4/kappa made in SP2/0 cells; also called 6A3-Ig4; 6A3-Ab
B2: 6A3 Fab monovalent fragment with his-tag (Fab, V domains shown, not shown: a dimerising Fc or GST; small tags and cut ends)
VH: B1 VH
VL: EIVLTQSPATLSLSPGERATLSCRASQSVSSYLAWYQQKPGQAPRLLIYDASNRATGIPARFSGSGSGTDFTLTISSLEPEDFAVYYCQQRSNWPITFGQGTRLEIK
modifications: A his-tag is present, but its chain and position are not stated, so it is left out.
notes: Made in E. coli; also called 6A3 derived monovalent Fab fragment; copies: 1 + 1

Target: T1, recombinant human NiG
Experiment: SPR (BIAcore), recombinant human NiG immobilised on a CM5 chip
Method: The affinity of the mouse 6A3-IgG1 mAb, 6A3-IgG4 mAb, and of the 6A3 Fab were measured by surface plasmon resonance (SPR) using a BIAcore 2000 optical biosensor (Biacore, Uppsala, Sweden) according to the manufacture's instructions. Recombinant human NIG was covalently immobilized on a flow cell of a CM5 sensor chip using amine-coupling chemistry. Briefly; the carboxymethlyladed dextran matrix was activated by injecting 35 μl of a solution containing 0.025M NHS and 0.1M EDC. […] The deactivation of the remaining NHS-ester group was performed by injection of 35 μl of 1M ethanolamine hydrochloride (pH 8.5). The surface of the sensor chip was regenerated by injecting 5 μl 0.1M HCl. […] After each injection, the sensor chip surface was regenerated with the injection of 10 μl 0.1M HCl without loss of binding activity on the surface. The kinetic constants, ka and kd and the affinity constants KA and KD were evaluated using the BIAevaluations 3.0 software supplied by the manufacturer.
Affinity measurement in BIAcore: The kinetic and the affinity binding constants of the mouse 6A3-IgG1 mAb, 6A3-IgG4 mAb, and of the 6A3 derived monovalent Fab fragment to recombinant human NogoA were measured in real time using surface plasmon resonance (SPR) technology (Biacore). […]

| Binder | Kd [nM] |
| --- | --- |
| B1 | 0.14 |
| B2 | 1.1 |
